According to US11111484B2, “Streptococcus bacteriophage lysins for detection and treatment of gram positive bacteria” (priority 2011, dated 2021):
Entries after “also recorded” stand apart in the source; their conditions may differ.

Key:
S. pyogenes strain 5005 = experiment: resistance assay, exposure to incrementally increasing concentrations; type: cell-based, Streptococcus pyogenes; settings: S. pyogenes 5005; concentration doubled daily from 1/32 to 4× MIC over 8 days
MRSA = experiment: MIC studies; type: cell-based, Staphylococcus aureus
Procedure: The Wiegand, et al. protocol to determine minimum inhibitory concentrations was followed with adjustments detailed below. A final suspension of ≈5×10^5 cells/ml in MHB (or BHI for S. pyogenes) resulted after Sterile-filtered lysin or vehicle was added at the appropriate concentration. These tests were distributed within a 96-well microtiter plate. The MIC's were determined, in this experiment, by detection of pellet formation in the bottom of rounded polysterene plate wells. They were also corroborated colorimetrically with alamarBlue®.

L. monocytogenes = experiment: CFU studies, bactericidal effect; type: cell-based, Listeria monocytogenes; settings: 128 μg/ml PlySs2, 60 mins
Procedure: Log-phase bacteria were resuspended in buffer A to an OD600 of 0.1 (=0.5 McFarland≈10^8 CFU/ml). PlySs2 was added at 128 μg/ml to polypropylene microtiter plates (Costar) in triplicate for each test organism. Plates were sealed and incubated at 37° C. with shaking every 5 minutes for 1 hour. After 1 hour of incubation, cells were serially diluted in 10-fold increments and plated on BHI. Triplicate controls for each strain were performed with buffer B replacing PlySs2.

S. equi 700400 = experiment: ΔPlySs1 OD600 lysis, 1 hr, optimal buffering conditions; type: cell-based, Streptococcus equi
S. rattus BHT = experiment: as above; type: cell-based, Streptococcus rattus
S. sobrinus 6715 = experiment: as above; type: cell-based, Streptococcus sobrinus
S. suis strain 7711 [1] = experiment: ΔPlySs1 biochemical characterization, turbidity reduction (OD600); type: cell-based, Streptococcus suis; settings: for activity after 6 hours at 40° C. / activity after 6 hours at 45° C.: 6-hr incubation; for pH of maximal activity in bis-tris-propane: BTP 40 mM, pH 7.0-9.7, 110 μg/ml; for temperature at which activity completely abolished: held 30 min at 35° C.-60° C.; for effect of DTT on activity: pre-incubated 1 hr with 5 mM DTT
Procedure: The optimal biochemical conditions for PlySs1 were determined against live cells of the encoding S. suis strain (7711). For these experiments, activity was gauged through the degree of turbidity reduction (OD600) of an aqueous bacterial suspension following the addition of lysin. The pH-dependence of the enzyme was first addressed using two buffer sets with adjacent pH ranges, citrate/phosphate: 4.6-8.0; and bis-tris-propane (BTP): 7.0-9.7. An extended spectrum of lysis was observed, from 5.4-9.4 (FIG. 11A). In BTP, lysis was maximal from 8.2-9.0; at commensurate pH-values, however, the magnitude of the OD-drop was slightly more pronounced in citrate/phosphate (FIG. 11B).
The thermal stability of PlySs1 was examined by incubating the enzyme at various elevated temperatures prior to use (the OD-drop experiment itself was always conducted at 37° C.). When held at 35° C.-60° C. for 30 min, lysin activity was virtually unaffected until 50° C., at which point it was completely abolished (FIG. 14A). […] The latter corresponds to typical porcine body temperature.

S. pyogenes D471 = experiment: ΔPlySs1 OD600 lysis, 1 hr, optimal buffering conditions; type: cell-based, Streptococcus pyogenes
E. faecalis V583 = experiment: as above; type: cell-based, Enterococcus faecalis
S. suis strain 7711 [2] = experiment: ΔPlySs1 growth inhibition in BHI broth; type: cell-based, Streptococcus suis; settings: overnight, 96-well plate
Procedure: The optical density of each sample was measured continuously overnight in 96-well plate format. Overall, bacterial growth was delayed in a dose-dependent manner. However, for enzyme-concentrations that were sufficient to induce lysis in buffered solutions (130 and 50 μg/ml), the effect was quite minimal here. […] For all of the treated samples, one will note that the final optical densities are actually higher than that of the untreated sample. This is an artifact of the accumulation of aggregated bacterial debris that occurred in the presence of lytic enzyme.
Truncated PlySs1(ΔPlySs1) lysin activity was determined against different cell types. Given the above experiments, the following optimal buffering conditions were employed for all further in vitro experiments with ΔPlySs1: 20 mM phosphate buffer, pH=7.8, 2 mM EDTA. A range of lysin concentrations, from 6.5-130 μg/ml, were introduced to live S. suis cells in this buffer. Three strains were considered particularly relevant: 7711, the serotype 7 strain that encodes PlySs1; S735, the serotype 2 reference strain; and 7997, a highly virulent serotype 9 strain. In terms of bacterial viability, only the highest PlySs1-concentration (130 μg/ml) led to a >90% decrease in CFUs for 7711, S735, and 7997 after 1 hr treatment (TABLE 2). The lysin was also tested against actively-dividing cells in broth culture (strain 7711) (FIG. 20).

S. oralis 35037 = experiment: ΔPlySs1 OD600 lysis, 1 hr, optimal buffering conditions; type: cell-based, Streptococcus oralis
S. pneumoniae R36 = experiment: as above; type: cell-based, Streptococcus pneumoniae
S. agalactiae type II = experiment: as above; type: cell-based, Streptococcus agalactiae

B1: PlySs2: Streptococcus suis prophage lysin, SEQ ID NO:3; N-terminal CHAP domain and C-terminal SH3-type 5 domain (protein, listed as Streptococcus suis)
chain: MTTVNEALNNVRAQVGSGVSVGNGECYALASWYERMISPDATVGLGAGVGWVSGAIGDTISAKNIGSSYNWQANGWTVSTSGPFKAGQIVTLGATPGNPYGHVVIVEAVDGDRLTILEQNYGGKRYPVRNYYSAASYRQQVVHYITPPGTVAQSAPNLAGSRSYRETGTMTVTVDALNVRRAPNTSGEIVAVYKRGESFDYDTVIIDVNGYVWVSYIGGSGKRNYVATGATKDGKRFGNAWGTFK
How did the development of resistance (S. pyogenes strain 5005) turn out when B1 was run?
Its development of resistance is “neither MRSA nor S. pyogenes established resistance; also recorded: None of MRSA strain MW2, MSSA strain 8325, nor S. pyogenes strain 5005 developed resistance”.

What about the “minimum inhibitory concentration (MIC)” value (MRSA) of the same molecule?
Its value is 16 µg/mL.

What about the “reduction in CFU counts” value (L. monocytogenes) of the same molecule?
The value was “dramatically reduced”.

B2: ΔPlySs1: truncated PlySs1 lysin, SEQ ID NO:2, N-terminal 254 amino acids: only N-terminal enzymatic and central binding domains (protein, listed as Streptococcus suis)
chain: MTINLETSIRWMSDRVGKVSYSMDYRNGPNSYDCSSAVYYALMAGGAISAGWAVNTEYMHDWLIRNGYVLVAENKPFNAQRHDVCILGKRGYSSGAGGHVVIFVDNVNVIHCNYARNGISIDNYNQVHRGMYYYLYRPANQPSISNKSLDQLVKETLAGVHGNGDTRKASLGSQYEAVMAVINGKASASEKSDEELAREVLAGKHGAGEDRKRSLGPRYEPVQAKVNELLKAKEKPSETAKNEPQTVQFKEDGDL
With B2 as the molecule, how does the “lysis value after 1 hr (treated/untreated OD600 ratio)” value (S. equi 700400; 6.5 μg/ml) read?
The value was 0.48.

What about the “lysis value after 1 hr (treated/untreated OD600 ratio)” value (S. equi 700400; 13 μg/ml) of the same molecule?
The value was 0.25.

And the “lysis value after 1 hr (treated/untreated OD600 ratio)” value (S. equi 700400; 30 μg/ml)?
The value was 0.15.

What about the “lysis value after 1 hr (treated/untreated OD600 ratio)” value (S. equi 700400; 65 μg/ml) of the same molecule?
Its value is 0.07.

And the “lysis value after 1 hr (treated/untreated OD600 ratio)” value (S. equi 700400; 130 μg/ml)?
Its value is 0.09.

What about the “lysis value after 1 hr (treated/untreated OD600 ratio)” value (S. rattus BHT; 6.5 μg/ml) of the same molecule?
Its value is 0.82.

What about the “lysis value after 1 hr (treated/untreated OD600 ratio)” value (S. rattus BHT; 13 μg/ml) of the same molecule?
The value was 0.84.

And the “lysis value after 1 hr (treated/untreated OD600 ratio)” value (S. rattus BHT; 30 μg/ml)?
Its value is 0.82.

And the “lysis value after 1 hr (treated/untreated OD600 ratio)” value (S. rattus BHT; 65 μg/ml)?
Its value is 0.83.

And the “lysis value after 1 hr (treated/untreated OD600 ratio)” value (S. rattus BHT; 130 μg/ml)?
The value was 0.79.

And the “lysis value after 1 hr (treated/untreated OD600 ratio)” value (S. sobrinus 6715; 6.5 μg/ml)?
The value was 0.64.

And the “lysis value after 1 hr (treated/untreated OD600 ratio)” value (S. sobrinus 6715; 13 μg/ml)?
The value was 0.48.

And the “lysis value after 1 hr (treated/untreated OD600 ratio)” value (S. sobrinus 6715; 30 μg/ml)?
The value was 0.39.

And the “lysis value after 1 hr (treated/untreated OD600 ratio)” value (S. sobrinus 6715; 65 μg/ml)?
The value was 0.32.

What about the “lysis value after 1 hr (treated/untreated OD600 ratio)” value (S. sobrinus 6715; 130 μg/ml) of the same molecule?
Its value is 0.23.

What about the “effect of NaCl on bacteriolysis” value (S. suis strain 7711 [1]; 0-1000 mM NaCl) of the same molecule?
The value was “bacteriolysis varied little”.

What about the “activity after 6 hours at 40° C.” value (S. suis strain 7711 [1]) of the same molecule?
The value was “maintained essentially native activity”.

What about the “activity after 6 hours at 40° C.” value (S. suis strain 7711 [1]; listed as PlySs1) of the same molecule?
Its value is “unaffected”.

And the “activity after 6 hours at 45° C.” value (S. suis strain 7711 [1])?
Its value is “some loss of activity, though not complete”.

And the “activity after 6 hours at 45° C.” value (S. suis strain 7711 [1]; listed as PlySs1)?
The value was “partial decrease in activity”.

And the “pH of maximal activity in bis-tris-propane” value (S. suis strain 7711 [1])?
The value was 9.0.

What about the “pH of maximal activity in bis-tris-propane” value (S. suis strain 7711 [1]; listed as PlySs1) of the same molecule?
The value was 8.2-9.0.

And the “pH spectrum of lysis” value (S. suis strain 7711 [1]; citrate/phosphate 4.6-8.0 and BTP 7.0-9.7)?
Its value is 5.4-9.4.

And the “effect of EDTA on activity” value (S. suis strain 7711 [1]; excess EDTA)?
Its value is “did not negatively impact activity”.

And the “temperature at which activity completely abolished” value (S. suis strain 7711 [1])?
Its value is “complete loss of activity was observed between the 45 °C and 50 °C samples”.

What about the “temperature at which activity completely abolished” value (S. suis strain 7711 [1]; listed as PlySs1) of the same molecule?
Its value is 50 °C.

And the “effect of DTT on activity” value (S. suis strain 7711 [1])?
The value was “activity was unchanged”.

What about the “effect of DTT on activity” value (S. suis strain 7711 [1]; listed as PlySs1) of the same molecule?
Its value is “did not negatively impact activity”.

What about the “lysis value after 1 hr (treated/untreated OD600 ratio)” value (S. pyogenes D471; 6.5 μg/ml) of the same molecule?
The value was 0.39.

What about the “lysis value after 1 hr (treated/untreated OD600 ratio)” value (S. pyogenes D471; 13 μg/ml) of the same molecule?
Its value is 0.27.

What about the “lysis value after 1 hr (treated/untreated OD600 ratio)” value (S. pyogenes D471; 30 μg/ml) of the same molecule?
Its value is 0.17.

What about the “lysis value after 1 hr (treated/untreated OD600 ratio)” value (S. pyogenes D471; 65 μg/ml) of the same molecule?
The value was 0.13.

What about the “lysis value after 1 hr (treated/untreated OD600 ratio)” value (S. pyogenes D471; 130 μg/ml) of the same molecule?
The value was 0.09.

And the “lysis value after 1 hr (treated/untreated OD600 ratio)” value (E. faecalis V583; 6.5 μg/ml)?
The value was 0.98.

What about the “lysis value after 1 hr (treated/untreated OD600 ratio)” value (E. faecalis V583; 13 μg/ml) of the same molecule?
Its value is 0.93.

And the “lysis value after 1 hr (treated/untreated OD600 ratio)” value (E. faecalis V583; 30 μg/ml)?
The value was 0.84.

What about the “lysis value after 1 hr (treated/untreated OD600 ratio)” value (E. faecalis V583; 65 μg/ml) of the same molecule?
Its value is 0.71.

What about the “lysis value after 1 hr (treated/untreated OD600 ratio)” value (E. faecalis V583; 130 μg/ml) of the same molecule?
The value was 0.52.

What about the “MIC / growth inhibition” value (S. suis strain 7711 [2]) of the same molecule?
Its value is “could not inhibit S. suis growth outright; also recorded: a MIC could not be assigned”.

And the “lysis value after 1 hr (treated/untreated OD600 ratio)” value (S. oralis 35037; 6.5 μg/ml)?
Its value is 0.30.

What about the “lysis value after 1 hr (treated/untreated OD600 ratio)” value (S. oralis 35037; 13 μg/ml) of the same molecule?
The value was 0.13.

What about the “lysis value after 1 hr (treated/untreated OD600 ratio)” value (S. oralis 35037; 30 μg/ml) of the same molecule?
Its value is 0.08.

What about the “lysis value after 1 hr (treated/untreated OD600 ratio)” value (S. oralis 35037; 65 μg/ml) of the same molecule?
Its value is 0.07.

What about the “lysis value after 1 hr (treated/untreated OD600 ratio)” value (S. oralis 35037; 130 μg/ml) of the same molecule?
The value was 0.04.

What about the “lysis value after 1 hr (treated/untreated OD600 ratio)” value (S. pneumoniae R36; 6.5 μg/ml) of the same molecule?
Its value is 0.25.

What about the “lysis value after 1 hr (treated/untreated OD600 ratio)” value (S. pneumoniae R36; 13 μg/ml) of the same molecule?
Its value is 0.22.

What about the “lysis value after 1 hr (treated/untreated OD600 ratio)” value (S. pneumoniae R36; 30 μg/ml) of the same molecule?
Its value is 0.14.

What about the “lysis value after 1 hr (treated/untreated OD600 ratio)” value (S. pneumoniae R36; 65 μg/ml) of the same molecule?
Its value is 0.16.

And the “lysis value after 1 hr (treated/untreated OD600 ratio)” value (S. pneumoniae R36; 130 μg/ml)?
The value was 0.12.

And the “lysis value after 1 hr (treated/untreated OD600 ratio)” value (S. agalactiae type II; 6.5 μg/ml)?
The value was 0.61.

What about the “lysis value after 1 hr (treated/untreated OD600 ratio)” value (S. agalactiae type II; 13 μg/ml) of the same molecule?
The value was 0.21.

And the “lysis value after 1 hr (treated/untreated OD600 ratio)” value (S. agalactiae type II; 30 μg/ml)?
The value was 0.11.

And the “lysis value after 1 hr (treated/untreated OD600 ratio)” value (S. agalactiae type II; 65 μg/ml)?
The value was 0.08.

And the “lysis value after 1 hr (treated/untreated OD600 ratio)” value (S. agalactiae type II; 130 μg/ml)?
The value was 0.04.
